One may read the koff as the rate constant with which the complex falls apart.

B1: MipZ (wild type), hexahistidine-tagged [Caulobacter crescentus] / itself (parent)
chain: MAETRVIVVGNEKGGAGKSTIAVHLVTALLYGGAKVAVIDLDLRQRTSARFFENRRAWLDNKKIELPEPLALNLSDNDVALAERPEEEQVAGFEAAFARAMAECDFILIDTPGGDSAITRMAHGRADLVVTPMNDSFVDFDMLGTVDPVTLELTKPSLYSLTVWEGRKQRALSGQRQAMDWVVLRNRLATTEARNRKRLEDRLNALAKRVGFRIGPGLRDRVIYRELFPFGLTIADLSPQVRPVPVSLQHLAARQELRALMHSLGLSAYSGETMLAAQ

Variants of B1 are the subject of the first assay. As to the kind of experiment: SPR. Particulars: with itself; 3500 RU immobilized protein; 0.5 μM soluble protein; + ATP; parent: 370; read off a plot.
On to chain 1 D42A, for which the response was 910 RU.

Still in this assay, the particulars now being: with itself; 3500 RU immobilized protein; 0.5 μM soluble protein; ATP in the binding phase; wash with buffer lacking protein and nucleotides.
On to chain 1 D42A, for which the koff worked out at 0.00112 s⁻¹.

Values taken from PMC3355305, “Localized Dimerization and Nucleoid Binding Drive Gradient Formation by the Bacterial Cell Division Inhibitor MipZ” (Molecular Cell, 2012).
